From article PMC4747207 (2015)

Biological target: GST-Skp1 (Homo sapiens (Human), UniProt P63208)
Experiment: GST pull-down, Western blot

Chain of GST-Skp1 (P63208 whole entry): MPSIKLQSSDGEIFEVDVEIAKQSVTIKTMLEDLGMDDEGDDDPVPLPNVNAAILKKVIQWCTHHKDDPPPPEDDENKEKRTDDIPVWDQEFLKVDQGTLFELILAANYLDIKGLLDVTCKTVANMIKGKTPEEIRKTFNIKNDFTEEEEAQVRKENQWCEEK

B1: Recombinant human MAGE-C2 protein (protein)
chain: MPPVPGVPFRNVDNDSPTSVELEDWVDAQHPTDEEEEEASSASSTLYLVFSPSSFSTSSSLILGGPEEEEVPSGVIPNLTESIPSSPPQGPPQGPSQSPLSSCCSSFSWSSFSEESSSQKGEDTGTCQGLPDSESSFTYTLDEKVAELVEFLLLKYEAEEPVTEAEMLMIVIKYKDYFPVILKRAREFMELLFGLALIEVGPDHFCVFANTVGLTDEGSDDEGMPENSLLIIILSVIFIKGNCASEEVIWEVLNAVGVYAGREHFVYGEPRELLTKVWVQGHYLEYREVPHSSPPYYEFLWGPRAHSESIKKKVLEFLAKLNNTVPSSFPSWYKDALKDVEERVQATIDTADDATVMASESLSVMSSNVSFSE
- binding result: no binding
